Experimental data as given in paper PMC10570038.
Several values for one entry are separate records, joined by “and”; a condition that tells them apart may be missing. Identical values can stand only once.

Assays:
[1] = target: RBPMS-A FL (rat) (UniProt A0A8I6G705); test: EMSA; conditions: no binding in 0-6 uM; EMSA: 10 nM RNA, 25 mM HEPES pH 7.9, 100 mM KCl, 2 mM MgCl2, 0.625 mM DTT, 0.1 mg/ml BSA, 5% glycerol, 30 C 1 h, then 5 mg/ml heparin 10 min; 5% native PAGE in …
[2] = target: recombinant untagged rat RBPMS-A ΔC20 (rat); test: AUC; sedimentation velocity, 40 000 rpm, 20°C, 20 mM HEPES, 1 mM TCEP, pH 7.9, 500 mM KCl; FL and ΔC20 at equal molar concentration (0.46 and 0.57 mg/ml); continuous c(s) model
[3] = target: recombinant untagged rat RBPMS-A ΔC20 (rat); test: cross-linking; glycerol gradients supplemented with a glutaraldehyde cross-linker (GraFix)
[4] = target: recombinant untagged rat RBPMS-A ΔC20 (rat); test: SEC; size exclusion chromatography of purified untagged recombinant protein; compared with size markers (443 kDa marker, void volume)
[5] = target: recombinant untagged rat RBPMS-A ΔC20 (rat); test: AUC; sedimentation velocity, 40 000 rpm, 20°C, 20 mM HEPES, 1 mM TCEP, pH 7.9, 60 mM KCl; FL 0.7, 0.48, 0.24, 0.11 mg/ml; ΔC20 0.5 or 0.1 mg/ml; continuous c(s) model

| stoichiometry N [2] | stoichiometry N [3] | percent eluting as dimer [4] [%] | stoichiometry N [4] | stoichiometry N [5] | Substance | Kd [1] [µM] |
| --- | --- | --- | --- | --- | --- | --- |
|  |  |  |  |  | GUCUACGCACCCUCAACCCGCACCUUGCGGGAUG [(CAC)2] | > 6 |
| 2 | 3 and 4 | 96 | 2 | 2 and 3 | recombinant untagged rat RBPMS-A ΔC20 (domain or fragment) |  |
